# Laboratory results from PMC3131678.
# Substrate: O=[N+]([O-])c1ccc(O)cc1
# Experiment: cells, lysate or membranes named
# Settings: other: PNPH; CI 95% confidence interval; pH 7.4; 37.0 °C
# Procedure: Briefly, liver samples were homogenised in 10 mM Tris-HCl, 250 mM sucrose (pH7.4) and centrifuged for 10 minutes at 10.000×g. Afterwards, CaCl2 to a final concentration of 8 mM was added to the supernatant, and the samples were centrifuged at 25.000×g for 30 minutes. The protein concentrations of the microsomal fraction (pellet) were determined with a commercially available kit (Bio-Rad laboratories) according to the manufacturer's instructions and bovine serum albumin was used as standard. The prepared microsomes were diluted to a final protein concentration of 4 mg/ml and stored at –80°C before analysis. All procedures were done on ice.
# Briefly, microsomes were incubated together with the appropriate type of substrate and NADPH at 37°C. The resulting production of resorufin or p-nitrochetecol was measured by HPLC. For studying inhibition, steroids were additionally added to the microsomes. Inhibition studies were performed using a pool of microsomes from three male pigs. […] All steroids were dissolved in methanol. The final concentration of methanol was below 0.1% in the reaction volumes. The same amount of methanol was added to the blank incubations. For the kinetic studies, the activities were determined with substrate concentrations ranging from 0.1 to 4.0µM for EROD and MROD, and from 0.01 to 2mM for PNPH. Kinetic studies were performed under linear conditions. […]
protein,measurement,value
CYP2E1 (Sus scrofa) (protein) MTALGITVALLVWLVTLLLISIWKHIHSSWKLPPGPFPLPIVGNIFQLDLKNIPKSFTMLAERYGPVFTVYLGSRRIVVLHGYKAVKEVLLHYKNEFSGRGEIPTFQVHKDKGVIFNNGPTWRDTRRFSLTTLRDFGMGKQGNEQRIQREAHFLLEALRKTHGQPFDPTFLIGCAPCNVISDILFRQHFDYNDKTCLRLMSMFNENFYLLSTGWIQLYNNFSGYLRYLPGSHRKLMKNISEIKDYALERVKDHRDSLEPSCPRDFTDTLLMEMEKEKYSAEPIYTLDNIAVTVADMFFAGTETTSTTLRYGLLILMKYPEVEEKLHEEIDRVIGPNRIPAIKDRLVMPYLDAVVHEIQRFIDLIPSNLPHEATRDTDFRDYIIPKGTVVIPTLDSVLYDSQEFPEPEKFKPEHFLNENGKFKYSDHFKAFSAGKRVCVGEGLARMELFLFMAAILQHFNLKSLVDPKDIDLSPIAIGFAKIPPHYKLCVIPRSQV,Km,0.33 (0.214–0.452) µM
